Assay results: publication PMC4188263

How the values were obtained:
[1] = target: methanol dehydrogenase α subunit from Methylococcus capsulatus (Bath) (Methylococcus capsulatus (Bath)); assay: SEC
[2] = target: methanol dehydrogenase α subunit from Methylococcus capsulatus (Bath) (Methylococcus capsulatus (Bath)); assay: SEC-MALS
[3] = target: methanol dehydrogenase from Methylococcus capsulatus (Bath), α2β2 dimer (Methylococcus capsulatus (Bath)); assay: BLI

Row | stoichiometry N [1] | stoichiometry N [2] | Kd [3] | Substance
1 | 2 | 2 | – | methanol dehydrogenase α subunit from Methylococcus capsulatus (Bath) (natural protein)
2 | – | – | 9 µM | spmoB, truncated recombinant periplasmic domains of M. capsulatus (Bath) pMMO subunit pmoB (domain or fragment)
